Assay [1] addresses T1, hDLL4-Fc (Sino Biologics) (human, UniProt Q9NR61 27-524, limits assumed).
T1 construct: Bought from Sino Biologics; also called Recombinant Fc-tagged hDLL4; recombinant hDLL4; not shown: Fc tag of the bought protein
Nature of the assay: SPR (Biacore T200), hDLL4-Fc on the chip, decoy as analyte, KD = kd/ka. The procedure:
(§1) Affinity Analysis. The binding kinetics of N1₁₀₋₁₄Fc and N4₁₀₋₁₄Fc were analyzed using a Surface Plasmon Resonance (SPR)-based assay on the BIACORE™ T200 system (GE Healthcare). Human IgG Fc (Sino Biologics) was first immobilized on a CM5 biosensor chip. Subsequently, an appropriate concentration of hDLL4-Fc (Sino Biologics) and hJAG1-Fc (Sino Biologics) was captured to the surface at a Response Unit (RU) of up to 20,000. Various concentrations of N1₁₀₋₁₄Fc and N4₁₀₋₁₄Fc were then passed through the chip with running buffer (1×HBS-N (10 mM HEPES, 150 mM NaCl) with 0.005% polysorbate 20, 1 mM CaCl₂), 2 mM MgCl₂, PH 7.4). After each reaction, the captured ligands and analyte were removed by regeneration buffer (1×HBS-N (10 mM HEPES, 150 mM NaCl) with 0.005% polysorbate 20, 1 mM CaCl₂), 2 mM MgCl₂, pH 7.4). The whole reaction was conducted at 25° C. and a flow rate of 25 μl/min. Sensorgrams of each concentration were obtained and analyzed by BIACORE™ evaluation software (GE Healthcare). The equilibrium constant KD was calculated from the ratio of the dissociation rate constant kd to the association rate constant kₐ (kd/kₐ).
Surface plasmon resonance (SPR) spectroscopy was used to characterize and quantify the interactions between these proteins. […]
In general terms: In SPR one partner is held on a chip, and binding of the other changes the refractive index at the surface.

The target in assay [2] is T1, hDLL4-Fc (Sino Biologics). Kind of assay: SPR (Biacore T200), hDLL4-Fc on the chip, decoy as analyte, multi-cycle kinetics, 25 C. The method, then:
as §1
Surface plasmon resonance (SPR) spectroscopy was used to characterize and quantify the interactions between these proteins. Recombinant Fc-tagged hDLL4 and hJAG1 were immobilized on the sensor chip using amine coupling and multi-cycle kinetic experiments were performed using increasing concentrations of either N1₁₀₋₁₄Fc or N4₁₀₋₁₄Fc. As a control, recombinant IgG Fc was immobilized on the sensor chip.

T1 sequence (Q9NR61 27-524 limits assumed): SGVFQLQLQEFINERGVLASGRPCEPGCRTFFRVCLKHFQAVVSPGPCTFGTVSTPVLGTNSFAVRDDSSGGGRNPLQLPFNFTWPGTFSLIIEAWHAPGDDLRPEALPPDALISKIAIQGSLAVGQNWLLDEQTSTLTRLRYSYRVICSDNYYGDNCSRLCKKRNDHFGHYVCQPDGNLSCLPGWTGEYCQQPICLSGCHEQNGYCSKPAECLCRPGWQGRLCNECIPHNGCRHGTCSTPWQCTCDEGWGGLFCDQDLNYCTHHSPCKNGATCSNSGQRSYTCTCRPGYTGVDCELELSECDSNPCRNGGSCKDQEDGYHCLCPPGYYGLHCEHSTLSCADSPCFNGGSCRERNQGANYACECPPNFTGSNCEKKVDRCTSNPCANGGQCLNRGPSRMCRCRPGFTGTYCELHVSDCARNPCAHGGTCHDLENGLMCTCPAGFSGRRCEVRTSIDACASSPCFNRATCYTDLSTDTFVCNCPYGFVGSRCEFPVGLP

B1: N410-14Fc (human Notch4 EGF-like repeats 10-14 fused to human IgG Fc) (Fc fusion)
chain: LEDMCLSQPCHGDAQCSTNPLTGSTLCLCQPGYSGPTCHQDLDECLMAQQGPSPCEHGGSCLNTPGSFNCLCPPGYTGSRCEADHNECLSQPCHPGSTCLDLLATFHCLCPPGLEGQLCEVETNECASAPCLNHADCHDLLNGFQCICLPGFSGTRCEEDIDECRSSPCANGGQCQDQPGAFHCKCLPGFEGPRCQ
notes: Produced in HEK293 cells; also called Notch4 peptibody; Notch4 decoy; not shown: human IgG Fc
With B1, binding in assay [1] was characterised by a dissociation constant (Kd) of 962 nM. Further, in assay [2], the dissociation rate constant (koff) (commonly the first-order rate constant of dissociation) came out at 0.0099 s⁻¹ and the on-rate constant (kon) (in general, the second-order rate constant of association) stood at 10300 M⁻¹ s⁻¹.

B2: N110-14Fc (human Notch1 EGF-like repeats 10-14 fused to human IgG Fc) (Fc fusion)
chain: ARGPRCISNPCNEGSNCDTNPVNGKAICTCPSGYTGPACSQDVDECSLGANPCEHAGKCINTLGSFECQCLQGYTGPRCEIDVNECVSNPCQNDATCLDQIGEFQCICMPGYEGVHCEVNTDECASSPCLHNGRCLDKINEFQCECPTGFTGHLCQYDVDECASTPCKNGAKCLDGPNTYTCVCTEGYTGTHCE
notes: Produced in HEK293 cells; also called Notch1 peptibody; Notch1 decoy; not shown: human IgG Fc
Consider B2, for which the Kd (as a rule, the constant that tells how readily two partners part at equilibrium) in assay [1] was 605 nM. For the same molecule, in assay [2], the koff came to 0.019 s⁻¹ and the kon was 31500 M⁻¹ s⁻¹.

(Values after patent US20250223332A1 (BOARD OF TRUSTEES OF THE UNIVERSITY OF ILLINOIS, published 2025).)
